Experimental data: IntAct's records for PubMed 31515488

B1: L-fucose dehydrogenase (Homo sapiens), Q9BPX1 (parent)
chain: MATGTRYAGKVVVVTGGGRGIGAGIVRAFVNSGARVVICDKDESGGRALEQELPGAVFILCDVTQEDDVKTLVSETIRRFGRLDCVVNNAGHHPPPQRPEETSAQGFRQLLELNLLGTYTLTKLALPYLRKSQGNVINISSLVGAIGQAQAVPYVATKGAVTAMTKALALDESPYGVRVNCISPGNIWTPLWEELAALMPDPRATIREGMLAQPLGRMGQPAEVGAAAVFLASEANFCTGIELLVTGGAELGYGCKASRSTPVDAPDIPS
B2: Rieske domain-containing protein (Homo sapiens), Q8TAC1 (parent)
chain: MNLDGSAQDPEKREYSSVCVGREDDIKKSERMTAVVHDREVVIFYHKGEYHAMDIRCYHSGGPLHLGDIEDFDGRPCIVCPWHKYKITLATGEGLYQSINPKDPSAKPKWCSKGIKQRIHTVTVDNGNIYVTLSNEPFKCDSDFYATGDFKVIKSSS
partner: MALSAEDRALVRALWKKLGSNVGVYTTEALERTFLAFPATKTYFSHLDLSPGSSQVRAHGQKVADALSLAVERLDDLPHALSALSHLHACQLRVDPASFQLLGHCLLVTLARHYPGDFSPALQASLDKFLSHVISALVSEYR
B3: Endophilin-B2 (Homo sapiens), Q9NR46 (parent)
chain: MDFNMKKLASDAGIFFTRAVQFTEEKFGQAEKTELDAHFENLLARADSTKNWTEKILRQTEVLLQPNPSARVEEFLYEKLDRKVPSRVTNGELLAQYMADAASELGPTTPYGKTLIKVAEAEKQLGAAERDFIHTASISFLTPLRNFLEGDWKTISKERRLLQNRRLDLDACKARLKKAKAAEAKATTVPDFQETRPRNYILSASASALWNDEVDKAEQELRVAQTEFDRQAEVTRLLLEGISSTHVNHLRCLHEFVKSQTTYYAQCYRHMLDLQKQLGRFPGTFVGTTEPASPPLSSTSPTTAAATMPVVPSVASLAPPGEASLCLEEVAPPASGTRKARVLYDYEAADSSELALLADELITVYSLPGMDPDWLIGERGNKKGKVPVTYLELLS
partner: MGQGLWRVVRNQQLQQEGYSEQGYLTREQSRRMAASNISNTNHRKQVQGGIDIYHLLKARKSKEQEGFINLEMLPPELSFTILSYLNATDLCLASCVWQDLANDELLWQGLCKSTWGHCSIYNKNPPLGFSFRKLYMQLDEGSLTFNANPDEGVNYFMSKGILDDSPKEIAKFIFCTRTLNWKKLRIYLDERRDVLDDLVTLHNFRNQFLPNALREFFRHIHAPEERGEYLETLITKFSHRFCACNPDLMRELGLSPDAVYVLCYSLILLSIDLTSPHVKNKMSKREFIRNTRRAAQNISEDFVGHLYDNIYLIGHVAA

Variants of: B1
Conditions: with psa1_human PSMA1, P25786
Sequence of psa1_human PSMA1, P25786 (P25786 whole entry): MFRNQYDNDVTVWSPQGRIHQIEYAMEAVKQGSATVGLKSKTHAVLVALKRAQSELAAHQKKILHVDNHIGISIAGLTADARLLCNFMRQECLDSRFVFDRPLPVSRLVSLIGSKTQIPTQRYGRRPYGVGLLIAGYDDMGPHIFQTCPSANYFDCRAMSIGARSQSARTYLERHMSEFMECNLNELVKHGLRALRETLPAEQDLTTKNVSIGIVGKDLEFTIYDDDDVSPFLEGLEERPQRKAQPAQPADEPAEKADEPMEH

Variant | effect of a mutation on the interaction
N31D | with no effect

Variants of: B1
Conditions: with sr1ip_human SREK1IP1, Q8N9Q2
Sequence of sr1ip_human SREK1IP1, Q8N9Q2 (Q8N9Q2 whole entry): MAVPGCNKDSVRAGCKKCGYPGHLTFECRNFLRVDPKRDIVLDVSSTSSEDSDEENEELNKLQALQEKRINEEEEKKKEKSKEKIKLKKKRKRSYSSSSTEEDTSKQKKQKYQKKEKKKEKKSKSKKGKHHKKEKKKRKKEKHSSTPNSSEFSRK

Variant | effect of a mutation on the interaction
N31D | with no effect

Variants of: B1
Conditions: with ntaq1_human NTAQ1, Q96HA8

Variant | effect of a mutation on the interaction
N31D | with no effect

Variants of: B1
Conditions: with phf1_human PHF1, O43189
Sequence of phf1_human PHF1, O43189 (O43189 whole entry): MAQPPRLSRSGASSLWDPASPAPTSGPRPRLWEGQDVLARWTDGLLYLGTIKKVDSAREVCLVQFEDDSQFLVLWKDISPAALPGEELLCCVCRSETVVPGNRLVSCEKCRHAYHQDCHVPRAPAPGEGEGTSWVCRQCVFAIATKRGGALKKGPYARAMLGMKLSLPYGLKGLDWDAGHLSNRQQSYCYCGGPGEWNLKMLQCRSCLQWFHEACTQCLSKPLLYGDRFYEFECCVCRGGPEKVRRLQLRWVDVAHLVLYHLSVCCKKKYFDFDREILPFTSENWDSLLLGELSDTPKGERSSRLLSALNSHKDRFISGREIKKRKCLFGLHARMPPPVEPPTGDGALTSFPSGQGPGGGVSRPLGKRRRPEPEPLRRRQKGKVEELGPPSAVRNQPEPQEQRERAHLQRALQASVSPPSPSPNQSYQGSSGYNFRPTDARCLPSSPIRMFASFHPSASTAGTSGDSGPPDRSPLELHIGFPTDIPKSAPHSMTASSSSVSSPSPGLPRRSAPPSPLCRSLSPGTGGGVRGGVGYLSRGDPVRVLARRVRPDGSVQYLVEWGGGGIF

Variant | effect of a mutation on the interaction
N31D | with no effect

Variants of: B1
Conditions: with cah8_human CA8, P35219
Sequence of cah8_human CA8, P35219 (P35219 whole entry): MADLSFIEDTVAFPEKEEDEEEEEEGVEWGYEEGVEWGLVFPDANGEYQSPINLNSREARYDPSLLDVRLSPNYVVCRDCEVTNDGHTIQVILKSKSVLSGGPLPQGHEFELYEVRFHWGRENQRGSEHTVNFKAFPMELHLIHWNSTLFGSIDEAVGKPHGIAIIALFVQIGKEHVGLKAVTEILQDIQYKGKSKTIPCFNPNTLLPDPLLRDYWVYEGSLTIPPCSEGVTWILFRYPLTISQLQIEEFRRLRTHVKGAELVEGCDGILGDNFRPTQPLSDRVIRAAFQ

Variant | effect of a mutation on the interaction
N31D | with no effect

Variants of: B2
Conditions: with hbat_human HBQ1, P09105

Variant | effect of a mutation on the interaction
D38A | disrupting interaction strength

Variants of: B3
Conditions: with fbx8_human FBXO8, Q9NRD0

Variant | effect of a mutation on the interaction
V223M | with no effect
